Experimental data: patent publication EP4471049A1 (Zealand Pharma A/S, priority 2023, dated 2024)
Read-outs that look alike come from different tables or passages of the source. *1 amine or outer side, *2 acyl side, *3 side chain or, on linkers, in order; H or OH if unused. Bridges are numbered along the chain shown (N, C = ends). [ ]: non-standard residue; d: D form. 4‑Aminomethyl‑phenylacetyl = 4-aminomethyl-phenylacetyl unit, its amine closes the lactam, O=C(Cc1ccc(CN[*:1])cc1)[*:2]; αMeAla(3-pyridyl) = C[C@](N)(Cc1cccnc1)C(=O)O; 2Nal = N[C@@H](Cc1ccc2ccccc2c1)C(=O)O; AEF = NCCOc1ccc(C[C@H](N)C(=O)O)cc1; NMe3Pal = CN[C@@H](Cc1cccnc1)C(=O)O; 3Pal = N[C@@H](Cc1cccnc1)C(=O)O; d3Pal = N[C@H](Cc1cccnc1)C(=O)O; αMeL = CC(C)C[C@](C)(N)C(=O)O; β3hL = CC(C)C[C@H](N)CC(=O)O; Dab = NCC[C@H](N)C(=O)O; Sar = CNCC(=O)O

T1: human IL-23R endogenously expressed on DB cells (human, UniProt Q5VWK5 24-629)
T1 sequence (looked up): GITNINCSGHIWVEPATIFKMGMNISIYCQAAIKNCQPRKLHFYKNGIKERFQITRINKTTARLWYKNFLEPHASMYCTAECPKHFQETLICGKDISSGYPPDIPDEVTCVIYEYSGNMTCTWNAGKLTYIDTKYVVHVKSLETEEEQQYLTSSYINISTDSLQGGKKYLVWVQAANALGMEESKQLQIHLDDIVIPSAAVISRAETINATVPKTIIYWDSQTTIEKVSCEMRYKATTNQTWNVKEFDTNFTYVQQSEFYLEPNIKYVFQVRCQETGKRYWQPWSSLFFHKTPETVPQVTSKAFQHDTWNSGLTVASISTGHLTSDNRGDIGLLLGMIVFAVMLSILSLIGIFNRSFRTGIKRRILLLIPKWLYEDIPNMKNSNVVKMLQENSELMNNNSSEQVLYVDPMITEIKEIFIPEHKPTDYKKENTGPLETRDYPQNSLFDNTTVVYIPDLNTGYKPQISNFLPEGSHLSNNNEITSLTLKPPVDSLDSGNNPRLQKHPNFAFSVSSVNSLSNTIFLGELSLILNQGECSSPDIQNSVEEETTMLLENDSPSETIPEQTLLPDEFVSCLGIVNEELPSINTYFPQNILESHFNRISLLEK

T2: Nluc-IL23R fusion protein (human, UniProt Q5VWK5 22-629)
T2 construct: range 22-629; expressed with a secretion signal in HEK293 cells; used as crude membrane preparation; also called hIL-23R; human IL-23R; not shown: Nanoluc protein from the expression plasmid N1371 (Promega), N-terminal of IL-23R
T2 sequence (looked up): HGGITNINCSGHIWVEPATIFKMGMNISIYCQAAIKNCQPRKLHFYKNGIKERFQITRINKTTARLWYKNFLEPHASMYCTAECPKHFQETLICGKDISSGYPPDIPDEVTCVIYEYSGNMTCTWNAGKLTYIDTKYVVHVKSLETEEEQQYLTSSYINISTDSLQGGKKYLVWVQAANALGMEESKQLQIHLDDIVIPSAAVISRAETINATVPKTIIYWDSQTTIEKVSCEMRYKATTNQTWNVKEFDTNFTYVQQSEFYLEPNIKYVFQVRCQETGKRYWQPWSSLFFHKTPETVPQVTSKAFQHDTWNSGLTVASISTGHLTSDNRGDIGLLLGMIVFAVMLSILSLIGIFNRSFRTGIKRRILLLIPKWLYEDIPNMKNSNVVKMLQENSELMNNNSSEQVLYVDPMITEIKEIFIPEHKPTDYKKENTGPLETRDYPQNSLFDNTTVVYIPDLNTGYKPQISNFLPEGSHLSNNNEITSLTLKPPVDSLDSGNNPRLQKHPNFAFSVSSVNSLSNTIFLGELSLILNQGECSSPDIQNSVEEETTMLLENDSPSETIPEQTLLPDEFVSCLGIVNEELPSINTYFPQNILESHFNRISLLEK

B1: Compound 9 (peptide)
peptide: [4‑Aminomethyl‑phenylacetyl]SEWQ[Dab][AEF][2Nal][αMeL]E[Dab][3Pal][Sar]-NH2
modifications: lactam N-10, 3-6
SMILES: CC(C)C[C@]1(C)NC(=O)[C@H](Cc2ccc3ccccc3c2)NC(=O)[C@H](Cc2ccc(OCCN)cc2)NC(=O)[C@@H]2CCNC(=O)CC[C@H](NC(=O)[C@H](CO)NC(=O)Cc3ccc(cc3)CNC(=O)CC[C@@H](C(=O)N[C@@H](CCN)C(=O)N[C@@H](Cc3cccnc3)C(=O)N(C)CC(N)=O)NC1=O)C(=O)N[C@@H](Cc1c[nH]c3ccccc13)C(=O)N[C@@H](CCC(N)=O)C(=O)N2
B2: Compound 10 (peptide)
peptide: [4‑Aminomethyl‑phenylacetyl]SEWQ[Dab][AEF][2Nal][αMeL]E[Dab][3Pal][dH]-NH2
modifications: lactam N-10, 3-6
SMILES: CC(C)C[C@]1(C)NC(=O)[C@H](Cc2ccc3ccccc3c2)NC(=O)[C@H](Cc2ccc(OCCN)cc2)NC(=O)[C@@H]2CCNC(=O)CC[C@H](NC(=O)[C@H](CO)NC(=O)Cc3ccc(cc3)CNC(=O)CC[C@@H](C(=O)N[C@@H](CCN)C(=O)N[C@@H](Cc3cccnc3)C(=O)N[C@H](Cc3c[nH]cn3)C(N)=O)NC1=O)C(=O)N[C@@H](Cc1c[nH]c3ccccc13)C(=O)N[C@@H](CCC(N)=O)C(=O)N2
B3: Compound C (peptide)
peptide: XQTWQCYWXENG
modifications: [Ac]-[Abu](16i)QTWQC(16i)[Y(2-aminoethoxy)]W[2-Me-Lys]ENG-[NH2]; (16i) [2,7] thioether bridge (cystathionine); N-terminal acetyl, C-terminal amide
notes: Y = Y(2-aminoethoxy)
B4: Compound 11 (peptide)
peptide: [4‑Aminomethyl‑phenylacetyl]SEWQ[Dab][AEF][2Nal][αMeL]E[Dab][3Pal][β3hL]-NH2
modifications: lactam N-10, 3-6
SMILES: CC(C)C[C@@H](CC(N)=O)NC(=O)[C@H](Cc1cccnc1)NC(=O)[C@H](CCN)NC(=O)[C@@H]1CCC(=O)NCc2ccc(cc2)CC(=O)N[C@@H](CO)C(=O)N[C@H]2CCC(=O)NCC[C@H](NC(=O)[C@H](CCC(N)=O)NC(=O)[C@H](Cc3c[nH]c4ccccc34)NC2=O)C(=O)N[C@@H](Cc2ccc(OCCN)cc2)C(=O)N[C@@H](Cc2ccc3ccccc3c2)C(=O)N[C@@](C)(CC(C)C)C(=O)N1
B5: Compound 3 (peptide)
peptide: [4‑Aminomethyl‑phenylacetyl]SEWQ[Dab][AEF][2Nal][αMeL]E[Dab][αMeAla(3-pyridyl)]-NH2
modifications: lactam N-10, 3-6
SMILES: CC(C)C[C@]1(C)NC(=O)[C@H](Cc2ccc3ccccc3c2)NC(=O)[C@H](Cc2ccc(OCCN)cc2)NC(=O)[C@@H]2CCNC(=O)CC[C@H](NC(=O)[C@H](CO)NC(=O)Cc3ccc(cc3)CNC(=O)CC[C@@H](C(=O)N[C@@H](CCN)C(=O)N[C@@](C)(Cc3cccnc3)C(N)=O)NC1=O)C(=O)N[C@@H](Cc1c[nH]c3ccccc13)C(=O)N[C@@H](CCC(N)=O)C(=O)N2
B6: Ref 52 (peptide)
peptide: [4‑Aminomethyl‑phenylacetyl]SCWQC[AEF][2Nal][αMeL]ER-NH2
modifications: lactam N-10; bridge 3-6; not fully specified (bridges); printed as [4-Aminomethyl-phenylacetyl](1c)*SC(2a)WQC(2a)[Y(2-aminoethoxy)][2-Nal][2-Me-Leu]E(1c)R-[NH2]
notes: Y = Y(2-aminoethoxy)
B7: Ref 80 (peptide)
peptide: [4‑Aminomethyl‑phenylacetyl]SCWQC[AEF][2Nal][αMeL]E[dR]-NH2
modifications: lactam N-10; bridge 3-6; not fully specified (bridges); printed as [4-Aminomethyl-phenylacetyl](1c)*SC(2a)WQC(2a)[Y(2-aminoethoxy)][2-Nal][2-Me-Leu]E(1c)[{d}R]-[NH2]
notes: Y = Y(2-aminoethoxy), R = D-Arg
B8: I1 (isomer 3) (peptide)
peptide: H-GCTCWECWWLCS-NH2
modifications: bridge 4-7, 2-11; not fully specified (bridges)
notes: compound from Heinis et al., 2020, synthesised for comparison

Assays:
[1] = biological target: T1, human IL-23R endogenously expressed on …; assay: cell-based or functional assay
[2] = biological target: T1, human IL-23R endogenously expressed on …; assay: cell-based or functional assay; remark: listed apart in the source
[3] = biological target: T2, Nluc-IL23R fusion protein; assay: BRET competition vs TAMRA-labelled peptide, Nluc-IL23R membranes; on % displacement (hIL-23R binding): test concentration or dose not given here
[4] = biological target: T2, Nluc-IL23R fusion protein; assay: as above; remark: listed apart in the source
[5] = biological target: T1, human IL-23R endogenously expressed on …; assay: cell-based or functional assay; remark: listed apart in the source
[6] = biological target: T2, Nluc-IL23R fusion protein; assay: BRET competition vs TAMRA-labelled peptide, Nluc-IL23R membranes; remark: listed apart in the source; on % displacement (hIL-23R binding): test concentration or dose not given here
[7] = biological target: T2, Nluc-IL23R fusion protein; assay: as above; remark: listed apart in the source
[8] = biological target: T2, Nluc-IL23R fusion protein; assay: Ki from BRET competition (Cheng-Prusoff), Nluc-IL23R membranes
[9] = biological target: T1, human IL-23R endogenously expressed on …; assay: cell-based or functional assay; remark: listed apart in the source

Binder | hIL-23 (pSTAT3) antagonist % inhibition [1] | hIL-23 (pSTAT3) antagonist IC50 [1] | IC50 (pSTAT3) [2] | % displacement (hIL-23R binding) [3] | IC50 [3] | % displacement (hIL-23R binding) [4] | IC50 (pSTAT3) [5] | % displacement (hIL-23R binding) [6] | IC50 [6] | IC50 [7] | Ki [8] | IC50 (pSTAT3) [9] | IC50 [4]
[4‑Aminomethyl‑phenylacetyl]SEWQ[Dab][AEF][2Nal][αMeL]E[Dab][NMe3Pal]-NH2 (lactam N-10, 3-6) [Compound 4] | 100% | 6.5 nM | 6.5 nM | 111% | 170 pM |  |  |  |  |  |  |  | 
B1 | 97% | 0.025 nM |  |  |  | 100% | 0.025 nM |  |  |  |  |  | 
[4‑Aminomethyl‑phenylacetyl]SEWQ[Dab][AEF][2Nal][αMeL]E[Dab][3Pal]-NHMe (lactam N-10, 3-6) [Compound 8] | 101% | 0.053 nM | 0.053 nM | 103% |  |  |  |  |  |  |  |  | 
B2 | 99% | 0.038 nM |  |  |  | 91% | 0.038 nM |  |  |  |  |  | 
B3 | 99% | 13 nM |  |  |  |  |  | 102% | 2600 pM | 2600 pM | 2110 pM |  | 
[4‑Aminomethyl‑phenylacetyl]SEWQ[Dab][AEF][2Nal][αMeL]E[Dab][d3Pal]-NH2 (lactam N-10, 3-6) [Compound 5] | 95% | 2.1 nM |  | 99% |  |  |  |  |  |  |  | 2.1 nM | 
B4 | 98% | 0.68 nM |  |  |  | 103% | 0.68 nM |  |  |  |  |  | 24 pM
B5 | 98% | 1.7 nM | 1.7 nM | 99% |  |  |  |  |  |  |  |  | 
B6 | 103% | 7.8 nM |  |  |  |  |  | 100% | 58 pM | 58 pM | 47.5 pM |  | 
B7 | 97% | 11 nM |  |  |  |  |  | 98% | 180 pM | 180 pM | 150 pM |  | 
B8 | 83% |  |  |  |  |  |  | 105% | 130000 pM | 130000 pM | 104000 pM |  | 
